Data from patent US11535650 (RA PHARMACEUTICALS, dated 2022).
Starred links: 1 amine or outer side, 2 acyl side, 3 side chain; linkers in the order of their positions; H or OH if unused. Positions of bridges follow the written chain, without caps; N, C: chain ends. Non-standard residues stand in square brackets, D forms with d. Primed or numbered codes have the meaning given here. *: point of attachment. Lys‑C8 = N-ε-caprylic lysine, CCCCCCCC(=O)NCCCC[C@H](N[*:1])C(=O)[*:2]; mXylyl(3) = bridging moiety between the two residues given in brackets; mXylyl″ = bridging moiety between the two marked residues; mXylyl = bridging moiety between residues (mXylyl(i,j)); Ala(1H-tetrazol-5-yl) = N[C@@H](Cc1nnn[nH]1)C(=O)O; Trp(7-aza) = N[C@@H](Cc1c[nH]c2ncccc12)C(=O)O; Phe(3-Cl) = N[C@@H](Cc1cccc(Cl)c1)C(=O)O; dPhg = N[C@@H](C(=O)O)c1ccccc1; Chg = N[C@H](C(=O)O)C1CCCCC1; Phg = N[C@H](C(=O)O)c1ccccc1; Tle = CC(C)(C)[C@H](N)C(=O)O; Lys‑C12 = N-ε-lauryl lysine; NMeS = CN[C@@H](CO)C(=O)O; Heptanoyl = CCCCCCC(=O)*; Pra = C#CC[C@H](N)C(=O)O; Nva = CCC[C@H](N)C(=O)O

B1: R3137 (peptide)
peptide: Heptanoyl-C[dPhg]T[Trp(7-aza)]EY[NMeS]AC[Nva]-NH2
modifications: linker 1-9 via mXylyl″; not fully specified; printed as [mXylyl(1,9)]heptanoyl-C-(D-Phg)-T-azaTrp-E-Y-(N-Me)S-A-C-Nvl-NH2
B2: R3136 (peptide)
peptide: Heptanoyl-[Nva]C[dPhg]T[Trp(7-aza)]EY[NMeS]AC[Nva]-NH2
modifications: linker 2-10 via mXylyl″; not fully specified; printed as [mXylyl(2,10)]heptanoyl-Nvl-C-(D-Phg)-T-azaTrp-E-Y-(N-Me)S-A-C-Nvl-NH2

Target: human C5 protein (human, UniProt P01031 19-673; P01031 678-1676)
Test: cell-based or functional assay

Binder	Avg. IC50, human hemolysis assay (complete human sera) [nM]
B1	> 100000
Ac-CVERFCDVYWEF[Pra]-NH2 (linker 1-6 via mXylyl″) [R3147]	138
Ac-CVERFCD[Tle]YWEF-NH2 (linker 1-6 via mXylyl″) [R3138]	87.2
Ac-[Nva]C[Phg]T[Trp(7-aza)]EY[NMeS][dA]C[Nva]-NH2 (linker 2-10 via mXylyl″) [R3135]	> 25000
Ac-[Nva]C[Phg]T[dW]EY[NMeS]HC[Nva]-NH2 (linker 2-10 via mXylyl″) [R3132]	> 100000
Ac-CAERFCD[Tle]YWEYP[dPhg][Nva]-NH2 (linker 1-6 via mXylyl″) [R3149]	13.6
Ac-C[Tle]ERFCD[Tle]YWEF-NH2 (linker 1-6 via mXylyl″) [R3139]	97.2
B2	> 50000
Ac-[Nva]C[Phg]T[Trp(7-aza)]E[Phe(3-Cl)][NMeS]AC[Nva]-NH2 (linker 2-10 via mXylyl″) [R3134]	> 5000
Ac-CAERFCD[Tle]YWEYP[Phg][Nva]-NH2 (linker 1-6 via mXylyl″) [R3148]	8.5
Ac-CVERFCDVY[Trp(7-aza)]EYP-NH2 (linker 1-6 via mXylyl″) [R3142]	44.6
Ac-CVERACD[Tle]Y[Trp(7-aza)]EYP[Phg][Nva]-NH2 (linker 1-6 via mXylyl″) [R3155]	1530
Ac-CVERFCDVYWEFP-NH2 (linker 1-6 via mXylyl″) [R3141]	24.5
Ac-CVERFC[Ala(1H-tetrazol-5-yl)][Tle]Y[Trp(7-aza)]EYP[Chg][Nva]-NH2 (linker 1-6 via mXylyl(3)) [R3168]	7.5
Ac-CAERFCD[Tle]Y[Trp(7-aza)]EYP[Phg][Lys‑C12]-NH2 (linker 1-6 via mXylyl″) [R3164]	36
Ac-CAERFCD[Tle]Y[Trp(7-aza)]EYP[dPhg]K-NH2 (linker 1-6 via mXylyl″) [R3162]	16.5

Binder	Avg. IC50, human hemolysis assay (complete human sera) [nM]
Ac-C[Tle]ERFCDVYWEF-NH2 (linker 1-6 via mXylyl″) [R3146]	107
Ac-CVERACD[Tle]Y[Trp(7-aza)]EYP[dPhg][Nva]-NH2 (linker 1-6 via mXylyl″) [R3156]	> 10000
Ac-CAERFCD[Tle]Y[Trp(7-aza)]EYP[Phg][Lys‑C8]-NH2 (linker 1-6 via mXylyl″) [R3166]	17.5
Ac-CVERFCA[Tle]Y[Trp(7-aza)]EYP[Phg][Nva]-NH2 (linker 1-6 via mXylyl″) [R3157]	84.5
Ac-CVARFCD[Tle]Y[Trp(7-aza)]EYP[dPhg][Nva]-NH2 (linker 1-6 via mXylyl″) [R3151]	165
Ac-CVERFCDVYWEYP-NH2 (linker 1-6 via mXylyl″) [R3140]	17.9
Ac-CVERFCA[Tle]Y[Trp(7-aza)]EYP[dPhg][Nva]-NH2 (linker 1-6 via mXylyl″) [R3158]	327
Ac-CAERFCD[Tle]Y[Trp(7-aza)]EYP[Phg]K-NH2 (linker 1-6 via mXylyl″) [R3161]	7
Ac-[Nva]C[Phg][dA][Trp(7-aza)]EY[NMeS]HC[Nva]-NH2 (linker 2-10 via mXylyl″) [R3133]	> 75000
Ac-C[Phg]T[Trp(7-aza)]EY[NMeS]HC-NH2 (linker 1-9 via mXylyl) [R3015]	> 3960
Ac-CVEAFCD[Tle]Y[Trp(7-aza)]EYP[dPhg][Nva]-NH2 (linker 1-6 via mXylyl″) [R3154]	592
Ac-[Nva]C[Phg]T[Trp(7-aza)]EY[NMeS]HC-NH2 (linker 2-10 via mXylyl) [R3013]	344
CVERFCDGYWEYP ([mXylyl(1,6)]Ac-C-V-E-R-F-C-D-Tbg-Y-W-E-Y-P-NH2) [R3143]	18.6
Ac-CVEAFCD[Tle]Y[Trp(7-aza)]EYP[Phg][Nva]-NH2 (linker 1-6 via mXylyl″) [R3153]	175
Ac-CVARFCD[Tle]Y[Trp(7-aza)]EYP[Phg][Nva]-NH2 (linker 1-6 via mXylyl″) [R3150]	32
